Laboratory results: patent US20090175880A1 (published 2009)

Legend:
[1] = target: soluble fusion protein comprising a DEC-205 extracellular domain (comprising all ten lectin-binding domains) fused with an antibody Fc domain (human) (UniProt O60449); test: SPR (Biacore 2000), DEC-205 fusion protein amine-coupled to CM5 chip, antibody flowed at 1.25-200 nM, 1:1 Langmuir fit, mean of two series
[2] = target: T1, soluble fusion protein comprising a DEC-205 extracellular domain (comprising all ten lectin-binding domains) … (human, UniProt O60449 28-1666); test: as above
T1 construct: not shown: antibody Fc domain
T1 sequence (O60449 28-1666 K1321N/Y1391H): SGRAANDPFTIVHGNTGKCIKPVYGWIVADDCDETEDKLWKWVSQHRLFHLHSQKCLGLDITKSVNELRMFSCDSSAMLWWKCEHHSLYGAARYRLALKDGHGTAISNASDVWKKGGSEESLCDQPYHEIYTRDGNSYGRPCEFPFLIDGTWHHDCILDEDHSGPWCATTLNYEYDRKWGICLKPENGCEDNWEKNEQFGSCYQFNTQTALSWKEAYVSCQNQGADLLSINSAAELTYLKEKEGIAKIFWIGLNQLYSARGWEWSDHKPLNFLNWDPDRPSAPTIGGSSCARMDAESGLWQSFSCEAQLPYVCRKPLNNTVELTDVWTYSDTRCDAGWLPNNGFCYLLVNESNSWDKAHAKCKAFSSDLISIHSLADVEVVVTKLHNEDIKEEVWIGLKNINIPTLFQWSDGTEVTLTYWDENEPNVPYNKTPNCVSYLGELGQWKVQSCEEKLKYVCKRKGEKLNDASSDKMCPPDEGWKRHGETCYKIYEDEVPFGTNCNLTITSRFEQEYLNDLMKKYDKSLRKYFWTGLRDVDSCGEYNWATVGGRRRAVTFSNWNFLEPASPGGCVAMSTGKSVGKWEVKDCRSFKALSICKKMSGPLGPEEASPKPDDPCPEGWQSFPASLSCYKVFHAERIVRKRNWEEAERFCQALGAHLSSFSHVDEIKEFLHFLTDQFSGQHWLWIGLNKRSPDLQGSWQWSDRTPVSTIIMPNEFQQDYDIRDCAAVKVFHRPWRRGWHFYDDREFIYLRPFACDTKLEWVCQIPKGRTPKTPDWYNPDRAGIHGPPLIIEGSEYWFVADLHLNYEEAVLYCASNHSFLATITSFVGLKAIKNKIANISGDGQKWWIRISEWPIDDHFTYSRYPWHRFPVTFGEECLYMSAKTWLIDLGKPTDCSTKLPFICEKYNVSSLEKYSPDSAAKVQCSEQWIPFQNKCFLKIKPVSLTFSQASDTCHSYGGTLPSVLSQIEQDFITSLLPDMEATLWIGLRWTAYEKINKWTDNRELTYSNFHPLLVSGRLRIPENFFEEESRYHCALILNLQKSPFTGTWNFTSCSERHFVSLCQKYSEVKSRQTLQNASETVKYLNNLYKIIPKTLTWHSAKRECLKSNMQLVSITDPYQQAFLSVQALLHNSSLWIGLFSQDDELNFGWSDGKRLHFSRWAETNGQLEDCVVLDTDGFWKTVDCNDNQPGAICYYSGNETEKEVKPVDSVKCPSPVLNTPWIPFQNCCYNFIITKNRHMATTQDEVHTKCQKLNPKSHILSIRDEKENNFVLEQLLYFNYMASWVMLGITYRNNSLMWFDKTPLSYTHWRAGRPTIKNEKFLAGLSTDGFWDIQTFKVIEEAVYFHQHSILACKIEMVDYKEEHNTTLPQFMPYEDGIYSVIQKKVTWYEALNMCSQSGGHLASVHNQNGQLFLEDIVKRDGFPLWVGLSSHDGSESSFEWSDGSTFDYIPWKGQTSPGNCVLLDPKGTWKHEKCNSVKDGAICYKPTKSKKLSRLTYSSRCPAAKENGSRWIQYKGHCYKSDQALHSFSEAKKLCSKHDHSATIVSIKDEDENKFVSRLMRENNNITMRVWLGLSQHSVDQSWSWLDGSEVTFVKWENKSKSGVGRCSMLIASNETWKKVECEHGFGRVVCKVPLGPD
Text: Low levels of ligand were immobilised to limit any effects of mass transport of analyte on kinetic parameters, such that the RMAX observed was in the order of 200 RU.
The antigen-antibody association and dissociation kinetics were followed for approximately 300 to 600 seconds in each case.
Biacore's kinetics wizard was used in each case to derive kinetic parameters from the concentration series of analyte diluted in HBS-NP running buffer. The association and dissociation curves were fitted to a 1:1 Langmuir binding model using Biacore™ kinetics wizard software (Biacore AB) according to the manufacturer's guidelines. For each antibody, the figures shown are the mean of two separate series of experiments, using separately prepared sensor chips in each case, (where ka=rate constant of association, kd=rate constant of dissociation, KD=dissociation equilibrium constant (measure of affinity), KA=association equilibrium constant, Rmax=maximum SPR response signal).

[3] = target: human DEC-205 expressed on the cell surface (human, UniProt O60449 28-1722); test: flow cytometry on CHO-S cells expressing human DEC-205, saturating antibody, PE anti-human IgG Fc
human DEC-205 expressed on the cell surface, sequence (O60449 28-1722 K1321N/Y1391H limits assumed): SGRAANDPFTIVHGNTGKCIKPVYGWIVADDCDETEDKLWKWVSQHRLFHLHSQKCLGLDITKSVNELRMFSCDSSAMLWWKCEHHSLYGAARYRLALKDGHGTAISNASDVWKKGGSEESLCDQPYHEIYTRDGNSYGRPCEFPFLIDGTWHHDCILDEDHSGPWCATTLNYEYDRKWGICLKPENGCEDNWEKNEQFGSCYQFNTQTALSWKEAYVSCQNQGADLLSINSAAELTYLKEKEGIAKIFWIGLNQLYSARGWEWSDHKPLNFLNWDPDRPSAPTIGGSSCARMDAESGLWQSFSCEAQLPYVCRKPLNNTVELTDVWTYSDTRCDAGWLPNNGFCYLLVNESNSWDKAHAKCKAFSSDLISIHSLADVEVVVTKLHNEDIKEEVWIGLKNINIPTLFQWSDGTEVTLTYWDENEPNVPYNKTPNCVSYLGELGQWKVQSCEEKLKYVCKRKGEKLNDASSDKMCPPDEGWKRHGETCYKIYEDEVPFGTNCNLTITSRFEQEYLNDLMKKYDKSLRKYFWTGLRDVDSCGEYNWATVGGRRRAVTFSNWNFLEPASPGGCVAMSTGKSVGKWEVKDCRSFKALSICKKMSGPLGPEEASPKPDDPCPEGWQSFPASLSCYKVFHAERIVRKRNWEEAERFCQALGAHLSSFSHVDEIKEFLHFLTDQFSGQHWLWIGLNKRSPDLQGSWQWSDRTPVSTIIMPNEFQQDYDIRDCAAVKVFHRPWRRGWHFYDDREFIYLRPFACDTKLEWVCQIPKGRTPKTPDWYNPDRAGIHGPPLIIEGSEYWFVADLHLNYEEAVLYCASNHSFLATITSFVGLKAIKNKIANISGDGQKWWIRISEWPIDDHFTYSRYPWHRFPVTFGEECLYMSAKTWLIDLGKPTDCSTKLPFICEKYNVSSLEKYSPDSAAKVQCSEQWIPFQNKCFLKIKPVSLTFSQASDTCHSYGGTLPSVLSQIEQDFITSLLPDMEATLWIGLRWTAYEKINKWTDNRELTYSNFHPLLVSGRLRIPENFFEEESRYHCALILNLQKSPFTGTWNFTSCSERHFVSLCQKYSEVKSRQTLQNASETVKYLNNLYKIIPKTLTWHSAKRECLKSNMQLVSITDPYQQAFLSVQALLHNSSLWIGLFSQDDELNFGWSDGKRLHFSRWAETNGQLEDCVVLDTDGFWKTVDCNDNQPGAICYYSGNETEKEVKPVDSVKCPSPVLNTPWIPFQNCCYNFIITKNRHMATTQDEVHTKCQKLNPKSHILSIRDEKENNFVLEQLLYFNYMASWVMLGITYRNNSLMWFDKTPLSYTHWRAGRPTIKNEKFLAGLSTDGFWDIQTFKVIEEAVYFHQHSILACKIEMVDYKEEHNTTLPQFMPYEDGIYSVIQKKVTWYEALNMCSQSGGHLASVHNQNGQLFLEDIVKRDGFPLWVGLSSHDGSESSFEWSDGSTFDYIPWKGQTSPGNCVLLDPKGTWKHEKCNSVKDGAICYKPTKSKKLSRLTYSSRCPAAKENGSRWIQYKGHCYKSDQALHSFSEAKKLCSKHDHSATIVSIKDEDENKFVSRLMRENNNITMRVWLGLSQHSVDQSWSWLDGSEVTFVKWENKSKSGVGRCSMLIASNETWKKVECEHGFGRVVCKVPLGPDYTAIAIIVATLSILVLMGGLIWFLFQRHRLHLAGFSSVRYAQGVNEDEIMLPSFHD

[4] = target: T1, soluble fusion protein comprising a …; test: ELISA, plates coated with soluble DEC-205/Fc fusion protein, saturating antibody, AP anti-human IgG Fc, OD 405-650

soluble fusion protein comprising a DEC-205 extracellular domain (comprising all ten lectin-binding domains) fused with an antibody Fc domain (human), sequence (O60449 28-1666 K1321N/Y1391H): as the sequence (O60449 28-1666 K1321N/Y1391H) above

Binder | Ka [1] [M⁻¹] | Kd [1] [pM] | koff [1] [s⁻¹] | kon [1] [M⁻¹ s⁻¹] | Ka [2] [M⁻¹] | Kd [2] [pM] | koff [2] [s⁻¹] | kon [2] [M⁻¹ s⁻¹] | binding result [3] | binding result [4]
2D3-1F5-2A9 (antibody, part only; not given: light chain, V domains shown, part only) VH: EVQLVQSGGGLVHPGGSLRLSCAGSGFTFSNYAMHWVRQAPGKGLEWVSTIGTGGGTPYADSVKGRFTISRDNAKNSLYLQMNSLRAEDMAVYYCALSAFDVWGQGTMVTVSSASTKGPSVFPLA | 1.5e+10 | 68 | 2.2e-05 | 330000 | – | – | – | – | – | –
3G9-2D2 (antibody, V domains shown, Human IgG (kappa) from a hybridoma, protein A purified; also called mAb #8; HuMab 3G9-2D2) VH: QVQLVESGGGVVQPGRSLRLSCAASGFTFSNYGMYWVRQAPGKGLEWVAVIWYDGSNKYYADSVKGRFTISRDNSKNTLYLQMNSLRAEDTAVYYCARDLWGWYFDYWGQGTLVTVSS VL: EIVLTQSPATLSLSPGERATLSCRASQSVSSYLAWYQQKPGQAPRLLIYDASNRATGIPARFSGSGSGTDFTLTISSLEPEDFAVYYCQQRRNWPLTFGGGTKVEIK | – | – | – | – | 4.7e+09 | 240 | 0.00019 | 900000 | – | –
3C7-3A3 (antibody, V domains shown, Human IgG (kappa) from a hybridoma, protein A purified; also called mAb #3; HuMab 3C7-3A3) VH: QVQLVESGGGVVQPGRSLRLSCAASGFTFSSYNMHWVRQAPGKGLEWVAFIWYDGSNKYYGDSVKGRFTISRDNSKNTLYLQMNSLRAEDTAVYYCAREELGIGWYFDLWGRGTLVTVSS VL: EIVLTQSPATLSLSPGERATLSCRASQSVSSYLAWYQQKPGQAPRLLIYDASNRATGIPARFSGSGSGTDFTLTISSLEPEDFAVYYCQQRRTFGQGTKVEIK | – | – | – | – | 5.2e+08 | 5600 | 0.00076 | 170000 | – | –
5A8-1F1 (antibody, V domains shown, Human IgG (kappa) from a hybridoma, protein A purified; also called mAb #2; HuMab 5A8-1F1) VH: QVQLVESGGGVVQPGRSLRLSCAASGFTFSTYGMHWVRQAPGKGLEWVAIIWYDGGNKYYADSVKGRFTISRDNSKNTLYLQMNSLRAEDTAVYYCARDFYWYFDLWGRGTLVTVSS VL: EIVLTQSPATLSLSPGERATLSCRASQSVSSYLAWYQQKPGQAPRLLIYDASNRATGIPARFSGSGSGTDFTLTISSLEPEDFAVYYCQQRRTFGQGTKVEIK | – | – | – | – | 2.1e+09 | 1500 | 0.0002 | 360000 | – | –
3D6-2F4 (antibody, V domains shown, Human IgG (kappa) from a hybridoma, protein A purified; also called mAb #5; HuMab 3D6-2F4) VH: QVQLVESGGGVVQPGRSLRLSCAASGFIFSIYGMHWVRQAPGKGLEWVAVIWYDGSNKYYADSVKGRFTISRDNSKNTLYLQMNSLRAEDTAVYYCARAPHFDYWGQGTLVTVSS VL: DIQMTQSPSSLSASVGDRVTITCRASQGISSWLAWYQQKPEKAPKSLIYAASSLQSGVPSRFSGSGSGTDFTLTISSLQPEDFATYYCQQYNSYPYTFGQGTKLEIK | – | – | – | – | 1.5e+10 | 80 | 0.00012 | 1.8e+06 | – | –
3D6-4C8 (antibody, V domains shown, Human IgG (kappa) from a hybridoma, protein A purified; also called HuMab 3D6-4C8) VH: QVQLVESGGGVVQPGRSLRLSCAASGFIFSIYGMHWVRQAPGKGLEWVAVIWYDGSNKYYADSVKGRFTISRDNSKNTLYLQMNSLRAEDTAVYYCARAPHFDYWGQGTLVTVSS VL: AIQLTQSPSSLSASVGDRVTITCRASQGISSALAWYQQKPGKAPKLLIYDASSLESGVPSRFSGSGSGTDFTLTISSLQPEDFATYYCQQFNSYPLTFGGGTKVEIK | – | – | – | – | – | – | – | – | binds | binds
